This passage reports Kd results from publication PMC3315474.

The series deals with HSF-3xFLAG (Heat Shock Factor) (Drosophila (species not stated)). Nature of the series: EMSA. The settings on record: Kd per HSF trimer, 20 mM HEPES pH 7.9, 100 mM NaCl, 3 mM MgCl2, 1 mM EDTA, 4 mM DTT, 10% glycerol, 0.1% NP-40, 300 ug/ml BSA, 10 ul, 200 amol probe, 30 min, room temperature. (In general: A gel shift assay detects complexes by their altered migration in electrophoresis.)

In the case of HSE chr2L:5009892 (42.6 pM), the Kd (in general, the concentration at which binding is half-saturated) (Methods print 42.7 pM) turned out to be 42.6 pM.

On to HSE chr2R:3529792 (308 pM), for which the dissociation constant Kd was 308 pM.

HSE chr3L:4073542 (97.5 pM) gave a dissociation constant Kd of 97.5 pM.

HSE chr3L:13470978 (221 pM) displayed a dissociation constant (Kd) (HSF up to 1.5 nM monomer) of 221 pM. That is a sub-nanomolar value.

HSE chrX:3380775 (224 pM) had an equilibrium dissociation constant (Kd) of 224 pM.
